Source: patent US20230399388A1 (Sanofi, published 2023)
Like-named read-outs stand apart in the source and are kept apart here. Primed or numbered codes have the meaning given here. Ends that are not written are not given here. Biotin′ = not defined here

B1: I22 (antibody, V domains shown)
VH: EVQLQQSGAELVRSGASVKLSCTASGFNIKDYYMHWVKQRPEQGLEWIGWVDPENGDSDYAPKFQGKATMTADTSSNTVYLQFSSLTSEDTAVYYCNAFEYDGNYSPLDFWGQGTSVTVSS
VL: DIVMTQSPSSLSVSAGEKVTMSCKSSQSLLNSGNQKNYLAWYQQKPGQPPKLLIYGASTRESGVPDRFTGSGSGTDFTLTISSVQAEDLAVYYCQNDHSYPLTFGAGTKLELK
notes: Murine hybridoma antibody; Family 1
B2: I54 (antibody, V domains shown)
VH: EVQLQQSGAELVRSGASVKLSCTASGFNIKDYYMHWVKQRPEQGLEWIGWVDPENGDSDYAPKFQGKATMTADTSSNTVYLQFSSLTSEDTAVYYCNAFEYDGNYSPLDFWGQGTSVTVSS
VL: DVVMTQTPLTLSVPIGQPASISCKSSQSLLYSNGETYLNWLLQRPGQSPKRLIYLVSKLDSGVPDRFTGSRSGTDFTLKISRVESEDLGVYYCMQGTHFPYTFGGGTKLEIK
notes: Murine hybridoma antibody; Family 1; also called 154
B3: C63 (antibody, V domains shown)
VH: EVKLEESGGGLVQPGGSMKLSCVASGFTFSNYWMNWVRQSPEKGLEWVAEIRSKSNNYATHYAESVKGRFTISRDDSKSSVYLQMNNLRAEDTGIYYCIGEDYGGDYWGQGTSVTVSS
VL: DIVMSQSPSSLAVSVGEKVTMSCKSSQSLLYSSDQRNYLAWYQQRSGQSPKLLIYWASTRESGVPDRFTGSGSGTDFTLTISSVKAEDLAVYYCQQYYSYPYTFGGGTKLEIK
notes: Murine hybridoma antibody; Family 2
B4: humanized F151 variant HC2a/LC2a (antibody, human IgG1, V domains shown)
VH: QIQLVQSGAEVKKPGASVKVSCKASGYSFTDYNIYWVKQSPGKGLEWIGYFDPYNGNTGYNQKFRGKATLTVDKSSSTAYMHLSSLTSEESAVYYCANYYRYDDHAMDYWGQGTSVTVSS
VL: DIVMTQSPSSLSASVGDRVTISCKSSQSLLYSSNQKNYLAWYQQKPGKSPKPLIYWASTRESGVPDRFSGSGSGTDFTLTISSVQAEDLATYYCQQYYSYPWTFGGGTKLEIK
notes: also called LC2axHC2a
B5: humanized F151 variant HC1/LC1 (antibody, V domains shown)
VH: EIQLVQSGPEVKKPGASVKVSCKASGYSFTDYNIYWVKQSPGKSLEWIGYFDPYNGNTGYNQKFRGKATLTVDKSSSTAFMHLSSLTSEDSAVYYCANYYRYDDHAMDYWGQGTSVTVSS
VL: DIVMSQSPSSLAASVGDRVTMSCKSSQSLLYSSNQKNYLAWYQQKPGKSPKPLIYWASTRESGVPDRFTGSGSGTDFTLTISSVQAEDLAIYYCQQYYSYPWTFGGGTKLEIK
notes: also called LC1xHC1
B6: humanized F151 variant HC2b/LC2a (antibody, human IgG1, V domains shown)
VH: QIQLVQSGAEVKKPGASVKVSCKASGYSFTDYNIYWVKQSPGKGLEWIGYFDPYNGNTGYNEKFRGKATLTVDKSSSTAYMHLSSLTSEESAVYYCANYYRYDDHAMDYWGQGTSVTVSS
VL: DIVMTQSPSSLSASVGDRVTISCKSSQSLLYSSNQKNYLAWYQQKPGKSPKPLIYWASTRESGVPDRFSGSGSGTDFTLTISSVQAEDLATYYCQQYYSYPWTFGGGTKLEIK
notes: also called LC2axHC2b
B7: humanized F151 variant HC2c/LC2b (antibody, human IgG1, V domains shown)
VH: QIQLVQSGAEVKKPGASVKVSCKASGYSFTDYNIYWVKQSPGKGLEWIGYFDPYNGNTGYNQKFRGKATLTVDKSSSTAYMHLSSKTSEESAVYYCANYYRYDDHAMDYWGQGTSVTVSS
VL: DIVMTQSPSSLSASVGDRVTISCKSSQSLLYSSNQKNYLAWYQQKPGKSPKPLIYWASTRESGVPDRFSGSGSGTDFTLTISSVQAEDKATYYCQQYYSYPWTFGGGTKLEIK
notes: also called LC2bxHC2c
B8: humanized F151 variant HC3a/LC3a (antibody, human IgG1, V domains shown)
VH: QIQLVQSGAEVKKPGASVKVSCKASGYSFTDYNIYWVRQAPGQGLEWIGYFDPYNGNTGYNQKFRGRATLTVDKSTSTAYMELRSLRSDDTAVYYCANYYRYDDHAMDYWGQGTLVTVSS
VL: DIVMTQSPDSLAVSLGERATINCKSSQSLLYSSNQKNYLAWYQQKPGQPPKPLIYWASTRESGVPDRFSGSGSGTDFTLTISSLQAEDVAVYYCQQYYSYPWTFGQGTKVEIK
notes: also called hF151
B9: humanized F151 variant HC3b/LC3b (antibody, human IgG1, V domains shown)
VH: QVQLVQSGAEVKKPGASVKVSCKASGYSFTDYNIYWVRQAPGQGLEWMGYFDPYNGNTGYNQKFRGRVTMTTDTSTSTAYMELRSLRSDDTAVYYCANYYRYDDHAMDYWGQGTLVTVSS
VL: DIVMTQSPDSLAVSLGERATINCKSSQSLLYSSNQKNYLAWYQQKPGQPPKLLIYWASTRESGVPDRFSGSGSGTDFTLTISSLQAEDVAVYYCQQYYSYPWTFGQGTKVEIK
notes: also called LC3bxHC3b

Assays:
[1] = biological target: T1, RRPPGFSPF-biotin (mouse); test: Biacore, biotin-peptide on SA chip;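 on kon: purified antibodies injected as twofold dilutions from 0.1 to 10 nM in HBS-EP over streptavidin-captured biotinylated BKR1 or BKR2 ligand peptides, with a random-peptide flow cell as reference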
T1 construct: also called DAKLP-b; DAKLP-biotin
T1 peptide: RRPPGFSPF-{Biotin′}
Text: (§1) For antibody binding kinetics, the instruments used were the BIACORE 2000 or BIACORE 3000 (GE Healthcare), designed for biomolecular interaction analysis (BIA) in real time. The sensor chip used was SA chip (GE Healthcare) with streptavidin covalently immobilized on a carboxymethylated dextran matrix. Each sensor chip has four parallel flow cells (Fc). Every biotinylated BKR1 or BKR2 ligand peptides were immobilized to one of the flow cells 2 to 4 (Fc2 to Fc4) in the SA chip for binding dissociation rate screening and selectivity screening. Flow cell 1 (Fc1) was reserved and immobilized with a random peptide (biotinylated at one terminus) with equal or close peptide length in comparison to the testing ligand peptides as the negative control. In screening assays, cell culture supernatants of the hybridoma clones selected through primary screening of transiently expressed humanized variants were injected over immobilized peptides. Hybridoma cell culture media was also injected over the chip surface as blank to establish a baseline. After subtracting signals of Fc1 and blank buffer runs, the dissociation rate of the antibodies from the supernatants to each peptide was analyzed and ranked using BIAevaluation software. […] In kinetics analysis, the corresponding biotin-peptides identified in screening for the testing antibody were immobilized in Fc2 to Fc4 while Fc1 with a random peptide used as reference cell. Each purified antibody selected from screenings were made into a series of two fold dilutions in running buffer (1×HBS-EP buffer, GE Healthcare) between 0.1 to 10 nM. Binding association rate, dissociation rate and the overall affinity were calculated in BIAevaluation.

[2] = biological target: T2, RRPPGFSPFR-biotin (mouse); test: Biacore, biotin-peptide on SA chip;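 on kon: purified antibodies injected as twofold dilutions from 0.1 to 10 nM in HBS-EP over streptavidin-captured biotinylated BKR1 or BKR2 ligand peptides, with a random-peptide flow cell as reference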
T2 construct: also called KLP-b; KLP-biotin
T2 peptide: RRPPGFSPFR-biotin
Text: as §1

[3] = biological target: T3, …-biotin (C-terminal biotin); test: Biacore, biotin-peptide on SA chip;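 on kon: purified antibodies injected as twofold dilutions from 0.1 to 10 nM in HBS-EP over streptavidin-captured biotinylated BKR1 or BKR2 ligand peptides, with a random-peptide flow cell as reference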
T3 construct: also called DAKD-b; DAKD-biotin
Text: as §1

[4] = biological target: T4, KRPPGFSPFR-biotin; test: Biacore, biotin-peptide on SA chip;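 on kon: purified antibodies injected as twofold dilutions from 0.1 to 10 nM in HBS-EP over streptavidin-captured biotinylated BKR1 or BKR2 ligand peptides, with a random-peptide flow cell as reference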
T4 construct: also called KD-b; KD-biotin
T4 peptide: KRPPGFSPFR-biotin
Text: as §1

[5] = biological target: desArg10kallidin; test: cell-based or functional assay
[6] = biological target: T5, desArg10kallidin like peptide (mouse); test: cell-based or functional assay
T5 peptide: RRPPGFSPF

[7] = biological target: T6, kallidin; test: cell-based or functional assay
T6 peptide: KRPPGFSPFR

[8] = biological target: T6, kallidin; test: cell-based or functional assay
[9] = biological target: desArg10kallidin; test: cell-based or functional assay; remark: listed apart in the source
[10] = biological target: T7, RPPGFSPF-biotin (C-terminal biotin); test: ELISA, biotin-peptide on streptavidin plate
T7 construct: also called DABK-b

[11] = biological target: T8, biotin-RPPGFSPF (N-terminal biotin); test: ELISA, biotin-peptide on streptavidin plate
T8 construct: also called b-DABK; biotin-DABK

[12] = biological target: T9, biotin-… (N-terminal biotin); test: ELISA, biotin-peptide on streptavidin plate
T9 construct: also called b-BK

[13] = biological target: T10, …-biotin (C-terminal biotin); test: ELISA, biotin-peptide on streptavidin plate
T10 construct: also called BK-b

[14] = biological target: T3, …-biotin; test: Biacore, biotin-peptide on SA chip; remark: listed apart in the source
[15] = biological target: T4, KRPPGFSPFR-biotin; test: Biacore, biotin-peptide on SA chip
[16] = biological target: T1, RRPPGFSPF-biotin; test: Biacore, biotin-peptide on SA chip
Text: as §1

[17] = biological target: T2, RRPPGFSPFR-biotin; test: Biacore, biotin-peptide on SA chip
Text: as §1

[18] = biological target: T3, …-biotin; test: Biacore, biotin-peptide on SA chip; remark: listed apart in the source
Text: as §1

[19] = biological target: T4, KRPPGFSPFR-biotin; test: Biacore, biotin-peptide on SA chip
Text: as §1

Binder | Kd [3] [nM] | koff [3] [s⁻¹] | Kd [4] [nM] | koff [4] [s⁻¹] | Mean Molar Ratio, ligand depletion, calcium mobilization in HEK mBKR1 cells [5] [molar ratio] | Mean Molar Ratio, ligand depletion, calcium mobilization in HEK mBKR1 cells [6] [molar ratio] | Mean Molar Ratio, ligand depletion, calcium mobilization in MRC5 cells [7] [molar ratio] | Kd [16] [nM] | koff [16] [s⁻¹] | kon [16] [M⁻¹ s⁻¹] | Kd [17] [nM] | koff [17] [s⁻¹] | kon [17] [M⁻¹ s⁻¹] | Kd [18] [nM] | koff [18] [s⁻¹] | kon [18] [M⁻¹ s⁻¹] | Kd [19] [nM] | koff [19] [s⁻¹] | kon [19] [M⁻¹ s⁻¹] | further results
B1 | 0.217 | 0.000319 | 0.0044 | 2.1e-05 | 0.07 | 0.21 | 0.22 | – | – | – | – | – | – | – | – | – | – | – | – | Kd [1]: ≤ 0.00183 nM; koff [1]: ≤ 1e-06 s⁻¹; Kd [2]: 0.00182 nM; koff [2]: 1.03e-05 s⁻¹; FLIPR (nM), KD (15 nM) [8]: 25 nM; FLIPR (nM), DAKD (50 nM) [9]: 9.4 nM
B2 | 0.00953 | 3.06e-05 | 0.0112 | 3.88e-05 | 0.15 | 0.35 | 0.3 | – | – | – | – | – | – | – | – | – | – | – | – | Kd [1]: 0.0117 nM; koff [1]: 5.66e-05 s⁻¹; Kd [2]: 0.00956 nM; koff [2]: 6.04e-05 s⁻¹; binding result [10]: binds; binding result [11]: binds; FLIPR (nM), KD (15 nM) [8]: 30 nM; FLIPR (nM), DAKD (50 nM) [9]: 8.1 nM
B3 | 0.142 | 9.36e-05 | 0.221 | 0.0001 | 0.08 | 5.85 | 0.23 | – | – | – | – | – | – | – | – | – | – | – | – | binding result [1]: no binding; binding result [2]: no binding; binding result [12]: no binding; binding result [13]: no binding; Kd [14]: 0.142 nM; Kd [15]: 0.221 nM
B4 | – | – | – | – | – | – | – | 0.0138 | 5.67e-06 | 410000 | 0.0434 | 2.68e-05 | 615000 | 0.0183 | 1.22e-05 | 666000 | 0.00871 | 6.12e-06 | 703000 | –
B5 | – | – | – | – | – | – | – | 0.016 | 7.96e-06 | 500000 | 0.00554 | 2.67e-06 | 481000 | 0.0145 | 6e-06 | 416000 | 0.000394 | 1.74e-07 | 424000 | –
B6 | – | – | – | – | – | – | – | 0.0297 | 1.3e-05 | 446000 | 0.00576 | 2.2e-06 | 401000 | 0.0257 | 1.05e-05 | 417000 | 0.00472 | 1.66e-06 | 375000 | –
B7 | – | – | – | – | – | – | – | 0.0121 | 1.1e-05 | 903000 | 0.0198 | 1.02e-05 | 516000 | 0.0901 | 4.34e-05 | 481000 | 0.0174 | 9.08e-06 | 564000 | –
B8 | – | – | – | – | – | – | – | 0.0305 | 1.42e-05 | 465000 | 0.00106 | 5.43e-07 | 502000 | 0.0253 | 1.28e-05 | 506000 | 0.00678 | 2.95e-06 | 427000 | –
B9 | – | – | – | – | – | – | – | 40.5 | 0.00276 | 70400 | 0.526 | 0.000272 | 539000 | 0.135 | 5.15e-05 | 385000 | 0.0144 | 3.02e-06 | 251000 | –
